Test results: article PMC4357730

Tests used:
hTDG-R275A R275A (human) = hTDG-R275A R275A (human) (UniProt Q13569); experiment: AFM; settings: dUF at insert position 9 opposite G (non-cleavable G:U analog); AFM: 25 mM HEPES pH 7.5, 25 mM Na acetate, 10 mM Mg acetate, RT; 2-AP hTDG: 20 mM HEPES pH 7.0, 0.2 mM EDTA, 2.5 mM MgCl2, 100 mM NaCl, 25 C; 2-AP hOGG1: 50 mM …; scale: specificity S
hTDG-N140A (human) = experiment: AFM; settings: AFM: 25 mM HEPES pH 7.5, 25 mM Na acetate, 10 mM Mg acetate, RT, 2-AP hTDG: 20 mM HEPES pH 7.0, 0.2 mM EDTA, 2.5 mM MgCl2, 100 mM NaCl, 25 C, 2-AP hOGG1: 50 mM …, scale: specificity S

Sequence of hTDG-R275A R275A (human) (Q13569 whole entry R275A): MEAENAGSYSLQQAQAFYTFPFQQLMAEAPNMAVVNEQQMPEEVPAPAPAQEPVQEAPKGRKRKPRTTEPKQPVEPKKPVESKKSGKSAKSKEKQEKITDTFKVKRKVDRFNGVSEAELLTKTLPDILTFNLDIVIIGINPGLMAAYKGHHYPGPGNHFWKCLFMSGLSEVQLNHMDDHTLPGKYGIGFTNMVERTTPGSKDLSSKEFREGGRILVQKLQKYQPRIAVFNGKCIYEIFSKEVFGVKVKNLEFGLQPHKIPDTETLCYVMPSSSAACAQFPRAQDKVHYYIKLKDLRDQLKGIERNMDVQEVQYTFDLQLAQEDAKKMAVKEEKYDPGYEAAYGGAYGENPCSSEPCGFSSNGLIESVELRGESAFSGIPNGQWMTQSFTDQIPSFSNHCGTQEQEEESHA

## 549 bp G:UF DNA
hTDG-R275A R275A (human)
  binding signal: 358

## 549 bp G:T DNA
hTDG-N140A (human)
  binding signal: 305

## 549 bp G:U DNA
hTDG-N140A (human); dU at insert position 9 opposite G
  binding signal: 163
